{"source": "paper PMC6704105", "molecular_target": "PRMT5 (UniProt O14744)", "assay": "co-IP with anti-PRMT5, JDP2 blot", "conditions": "reference: wild-type JDP2; sites T116", "data": [{"substance": "JDP2 (from UniProt Q8WYK2) JDP2 T116A", "values": [{"measurement": "binding against the reference", "value": "lost"}]}]}
